Key:
Human BTC [1] = target: T1, Human BTC (human, UniProt P35070 32-111); experiment: MSD-based inhibition of BTC binding to ErbB1
T1 construct: Soluble human BTC of the Biacore, ELISA, MSD and cell assays; also called human betacellulin; soluble human BTC
T1 sequence: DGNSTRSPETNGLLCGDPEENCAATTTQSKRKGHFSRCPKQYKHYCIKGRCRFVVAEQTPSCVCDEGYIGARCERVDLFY

Human BTC [2] = target: T1, Human BTC; experiment: SPR (Biacore/ProteOn)
Rat BTC = target: T2, Rat BTC (rat, UniProt Q9JJM4 32-111); experiment: SPR (Biacore/ProteOn)
T2 sequence: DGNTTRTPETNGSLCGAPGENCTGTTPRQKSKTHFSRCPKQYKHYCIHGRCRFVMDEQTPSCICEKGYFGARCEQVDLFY

Mouse BTC = target: T3, Mouse BTC (mouse, UniProt Q05928 32-111, limits assumed); experiment: SPR (Biacore/ProteOn)
T3 sequence (looked up): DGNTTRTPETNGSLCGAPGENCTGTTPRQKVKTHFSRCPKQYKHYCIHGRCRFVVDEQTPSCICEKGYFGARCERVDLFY

Rabbit BTC = target: T4, Rabbit BTC (rabbit, UniProt G1SJ89 32-111); experiment: SPR (Biacore/ProteOn)
T4 sequence: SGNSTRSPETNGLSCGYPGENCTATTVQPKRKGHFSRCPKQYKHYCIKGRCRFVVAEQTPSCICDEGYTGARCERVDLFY

Human BTC-avitag-biotin = target: T5, Human BTC-avitag-biotin (human, UniProt P35070 32-111, biotin on the avitag); experiment: flow cytometry, BTC-ErbB1 Cell Binding Inhibition: antibody pre-incubated with 15 nM human BTC-avitag-biotin, HKB11 cells over-expressing human ErbB1; y axis Percent Inhibition
T5 construct: also called biotin-BTC; soluble human BTC-avitag-biotin
T5 sequence: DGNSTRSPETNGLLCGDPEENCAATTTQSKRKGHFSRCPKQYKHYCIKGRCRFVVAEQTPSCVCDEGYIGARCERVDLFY
Procedure: HKB11 over-expressing either ErbB1 or ErbB4 cells were plated 1×10⁵ cells/well. Cells were washed once with FACS buffer by spun down at 1200 rpm for 5 minutes and supernatant removed. Next, the Fab sample dilutions and BTC were prepared in FACS buffer. Human BTC-avitag-biotin was diluted to a fixed concentration of 15 nM. The test Fab samples were prepared at a starting concentration of 40 nM and titrated for 9 points at a serial dilution of 1:2. Both biotin-BTC and the test Fab samples are incubated for 30 minutes at room temperature. The pre-incubated samples were then added to the cell plate at 100 μl per well in duplicate and incubated for 1 hour on ice. The plate was then washed once in FACS buffer and spun down at 1200 rpm for 5 minutes and supernatant removed. […]
Measurements were performed on Attune Flow Cytometry machine. Data were analysed using the Flow Jo software. The live cell populations analysed were gated in forward and side scattering (FSC-A/SSC-A dot plot). The interval gate was established on the control histogram, which was obtained with sample incubated in streptavidin-Alexa Fluor488 only, and subsequently, determined percent of positive binding events of cells carrying membrane-bound receptor ErbB1 or ErbB4 and biotin-BTC. The median of fluorescence intensity (MFI) value was also derived for the live cell population. […]

Human BTC [3] = target: T1, Human BTC; experiment: cell-based inhibition of BTC binding to ErbB1

- MSD-based binding inhibition BTC/ErbB1 (Human BTC [1]): > 90%
- Kd (Human BTC [2]): 6 pM
- Kd (Rat BTC): 7 pM
- Kd (Mouse BTC): 4 pM
- Kd (Rabbit BTC): 4 pM
- IC50 (Human BTC-avitag-biotin): 2500 pM
- Cell-based binding inhibition BTC/ErbB1 (Human BTC [3]): > 90%
B1: NVS1 (Fab, V domains shown)
VH: QVQLVQSGAEVKKPGSSVKVSCKASGGTFSSYAISWVRQAPGQGLEWMGGIVPWMGEAVYAQKFQGRVTITADESTSTAYMELSSLRSEDTAVYYCARSSSTYGIHAFDYWGQGTLVTVSS
VL: DIQMTQSPSSLSASVGDRVTITCRASQSISNFLNWYQQKPGKAPKLLIYAASNLQSGVPSRFSGSGSGTDFTLTISSLQPEDFATYYCQQYDDFPMTFGQGTKVEIKR
notes: also called Fab NVS1; NVS1 Fab

From patent publication US20220025032A1 (Novartis, published 2022)
